We go through 19 molecules from patent publication US20250340630A1 (SICHUAN KELUN BIOTECH BIOPHARMACEUTICAL, published 2025).

Substitutions are numbered along the chain they refer to.

The target in assay [1] is T1, human Claudin18.2 (human, UniProt P56856-2 1-261). The assay is described as follows: cell-based or functional assay.
Assay [2] deals with T1, human Claudin18.2. The experiment in a line: flow cytometry (IntelliCyt) on Ba/F3-Claudin18.2 cells. The text has this:
In order to evaluate the anti-Claudin18.2 humanized antibodies, codon optimized cDNAs of the heavy chains and the light chains of the candidate humanized antibodies from Example 6 were synthesized and ligated into pcDNA3.4 (by Nanjing Genscript Biotech Corporation). Expi293F cells (purchased from Thermo Incorporation) were co-transfected with pcDNA3.4 coding the heavy chain and light chain of each antibody. The antibodies were purified from the supernatant using protein A (MabSelect SuRe, GE). The affinity of the humanized antibodies to Claudin18.2 was determined using Ba/F3-Claudin18.2 cells which over-expressed human Claudin18.2. Ba/F3-Claudin18.2 cells (60000 in 10 ul buffer) were incubated with purified humanized antibodies on ice for 30 min, followed by washing with buffer (PBS+2% FBS) twice and addition of Alexa647-labeled goat-anti-human IgG Fc antibody (1:500 dilution). The cells were incubated on ice for another 30 min and analyzed by IntelliCyt.

Another assay concerns the target T2, human Claudin18.1 (human, UniProt P56856 1-261).
T2 construct: whole, on cells; Presented on transfected cells; also called CLDN18.1
The experiment in a line: FACS titration on Ba/F3-Claudin 18.1 cells. How it is done:
(§1) The affinity of the candidates to Claudin18.2 was measured using FACS. […] Ba/F3-Claudin18.1 and Ba/F3-Claudin18.2 cells were incubated with the purified mouse antibodies at various concentrations on ice for 30 min and mouse IgG was used as negative control (Thermo Fisher, Cat: 31903), followed by washing with FACS buffer (PBS+2% FBS) twice.

Assay [3] concerns the target T1, human Claudin18.2. The experiment in a line: flow cytometry on Ba/F3-Claudin18.2 cells, purified mouse antibody. How it is done:
as §1
(A flow cytometer gives signals particle by particle.)

The target of assay [4] is T1, human Claudin18.2. The experiment in a line: flow cytometry on Ba/F3-Claudin18.2 cells, chimeric antibody. How it is done: The affinity of the anti-Claudin18.2 chimeric antibodies to Ba/F3-Claudin18.2 cells were determined. […] The cells were then analyzed by FACS.

B1: humanized antibody 1E9.2-hz12 (antibody, human IgG1, kappa, V domains shown)
VH: EVQLVESGGGLVKPGGSLRLSCAASGFSFSNSAMSWVRQAPGKGLEWVSTISSGDSYTYYADSVKGRFTISRDNAKNSLYLQMNSLRAEDTAVYYCARQGYGNALDYWGQGTLVTVSS
VL: DIVMTQSPDSLAVSLGERATINCKSSQSLLQSGNQKNYLTWYQQKPGQPPKLLIYWSSTRESGVPDRFSGSGSGTDFTLTISSLQAEDFAVYYCQNDYYYPLTFGGGTKVEIKR
notes: Human IgG1 / kappa constant regions
In the case of B1, in the assay with human Claudin18.2 [1], the “ADCC EC50, Ba/F3-Claudin18.2 target cells, NK-92MI_mCD16 effectors” value (from here on “ADCC EC50”) turned out to be 0.091 µg/mL and the “ADCC Max killing rate %, Ba/F3-Claudin18.2 target cells” value (“ADCC Max killing rate %” below) worked out at 64.4%.

B2: humanized antibody 1E9.2-hz15 (antibody, human IgG1, kappa, V domains shown)
VH: B1 VH
VL: DIVMTQTPLSLPVTPGEPASISCKSSQSLLNSGNQKNYLTWYLQKPGQSPQLLIYWSSTRESGVPDRFSGSGSGTDFTLKISRVEAEDFGVYYCQNDYYYPLTFGGGTKVEIKR
notes: as for B1
As to B2, the “Max MFI” value in the assay with human Claudin18.2 [2] is 8.99e+06 MFI. In the assay with human Claudin18.2 [1], the “ADCC EC50” value is 0.08 µg/mL and the “ADCC Max killing rate %” value is 66.2%.

B3: humanized antibody 1E9.2-hz13 (antibody, human IgG1, kappa, V domains shown)
VH: B1 VH
VL: B1 VL with F89V
notes: as for B1
For B3, in the assay with human Claudin18.2 [1], the “ADCC EC50” value stood at 0.068 µg/mL and the “ADCC Max killing rate %” value is 63.8%.

B4: humanized antibody 1E9.2-hz41 (antibody, human IgG1, kappa, V domains shown)
VH: B1 VH with W47G, S49A, A61P
VL: B1 VL with Q31N
notes: as for B1
Regarding B4, in the assay with human Claudin18.2 [2], the “Max MFI” value was found to be 1.13e+07 MFI. In the assay with human Claudin18.2 [1], the “ADCC EC50” value worked out at 0.048 µg/mL and the “ADCC Max killing rate %” value is 55.4%.

B5: humanized antibody 1E9.2-hz21 (antibody, human IgG1, kappa, V domains shown)
VH: B1 VH with W47G
VL: B1 VL with Q31N
notes: as for B1
As to B5, the “Max MFI” value with human Claudin18.2 [2] turned out to be 1.46e+07 MFI.

B6: humanized antibody 1E9.2-hz17 (antibody, human IgG1, kappa, V domains shown)
VH: B1 VH
VL: B2 VL with N31Q, Q35G
notes: as for B1
For the molecule B6, the “Max MFI” value in the assay with human Claudin18.2 [2] is 5.9e+06 MFI. In addition, in the assay with human Claudin18.2 [1], the “ADCC EC50” value is 0.113 µg/mL and the “ADCC Max killing rate %” value worked out at 59.6%.

B7: humanized antibody 1E9.2-hz31 (antibody, human IgG1, kappa, V domains shown)
VH: B1 VH with W47G, S49A
VL: B1 VL with Q31N
notes: as for B1
On to B7, for which the “Max MFI” value in the assay with human Claudin18.2 [2] was determined as 1.06e+07 MFI.

B8: humanized antibody 1E9.2-hz14 (antibody, human IgG1, kappa, V domains shown)
VH: B1 VH
VL: B1 VL with Q35N
notes: as for B1
In the case of B8, in the assay with human Claudin18.2 [1], the “ADCC EC50” value was 0.097 µg/mL and the “ADCC Max killing rate %” value was found to be 60.5%.

B9: mouse antibody 6B9.22 (antibody, V domains shown)
VH: QVQLQQSGAELVKPGASVKMSCKAFGYTFTSYPIEWMKQNHGKSLEWIGNFHPYNDDTKYNEKFKGKAKLTVEKSSSTVYLELSRLTSDDSAVYYCARTYYGNSFAYWGQGTLVTVSS
VL: DIVMTQSPSSLTVTAGEKVTMSCKSSQSLLNSGNQKNYLTWYQQKPGQPPKLLIYWASSRDSGVPHRFTGSGSGTDFTLTISSVQAEDLAFYYCQNDYFYPFTFGAGTKLELK
notes: Purified from hybridoma
What is called EC50 is the concentration that produces a half-maximal response. A lower EC50 goes with a more potent agent. Regarding B9, the binding result with human Claudin18.1 was “no binding (tested: about 50 nM)”. Moreover, in the assay with human Claudin18.2 [3], the EC50 worked out at 3.64 nM and the “Max MFI” value was found to be 3.62e+06 MFI.

B10: chimeric antibody 1E9.2-hz00 (antibody, human IgG1, kappa, V domains shown)
VH: EVMLVESGGGLVKPGGSLKLSCAASGFSFSNSAMSWVRQTPEKRLEGVATISSGDSYTYYPDSVKGRFTISRDNAKNSLYLQMSSLRSEDTAVYYCARQGYGNALDYWGQGTSVTVSS
VL: DIVMTQSPSSLTVTAGEKVTMSCKSSQSLLNSGNQKNYLTWYQQKPGQPPKLLIYWSSTRESGVPDRFTGSGSGTDFTLTISSVQAEDLAVYYCQNDYYYPLTFGAGTKLELKR
notes: Mouse variable regions on human IgG1 / kappa constant regions; expressed in Expi293F; also called 1E9.2 chimeric antibody
For B10, in the assay with human Claudin18.2 [4], the EC50 came out at 11 nM and the “Max MFI” value is 1.18e+07 MFI. For the same molecule, the “Max MFI” value with human Claudin18.2 [2] turned out to be 1.12e+07 MFI. Besides, in the assay with human Claudin18.2 [1], the “ADCC EC50” value came out at 0.049 µg/mL and the “ADCC Max killing rate %” value was determined as 59.8%.

B11: chimeric antibody 9C8.1-hz00 (antibody, human IgG1, kappa, V domains shown)
VH: QVQLQQSGAELVRPGSSVKISCKASGYAFSNYWMNWVKQRPGQGLEWIGQIYPGDGDTNYNGKFKGKATLTTDKSSSTAYMQLSSLTSEDSAVYFCARLYYGNSFAYWGQGTLVTVSS
VL: B10 VL with M21V, S57A, E87A, V91I, Y99F, L102F, A106G, L112I
notes: Mouse variable regions on human IgG1 / kappa constant regions; expressed in Expi293F
Turning to B11, in the assay with human Claudin18.2 [4], a half-maximal effect (EC50) was put at 23.9 nM and the “Max MFI” value worked out at 1.44e+07 MFI.

B12: mouse antibody 1E9.2 (antibody, V domains shown)
VH: B10 VH
VL: B9 VL with A57S, S59T, D61E, H66D, F91V, F99Y, F102L
notes: Purified from hybridoma
As for B12, the binding result with human Claudin18.1 was “no binding (tested: about 50 nM)”. Also, in the assay with human Claudin18.2 [3], the concentration for a half-maximal effect (EC50) is 8.51 nM and the “Max MFI” value is 5.08e+06 MFI.

B13: chimeric antibody 6B9.22-hz00 (antibody, human IgG1, kappa, V domains shown)
VH: B9 VH
VL: B10 VL with S57A, T59S, E61D, D66H, V91F, Y99F, L102F
notes: as for B11
Turning to B13, in the assay with human Claudin18.2 [4], a half-maximal effect (EC50) was put at 18.2 nM and the “Max MFI” value turned out to be 1.67e+07 MFI.

B14: chimeric antibody 19H11.6-hz00 (antibody, human IgG1, kappa, V domains shown)
VH: B10 VH with Y57F, S63T, S85R
VL: B10 VL with S22T
notes: as for B11
B14: in the assay with human Claudin18.2 [4], the EC50 came to 11.6 nM and the “Max MFI” value came to 1.3e+07 MFI.

B15: mouse antibody 19H11.6 (antibody, V domains shown)
VH: B10 VH with Y57F, S63T, S85R
VL: B9 VL with S22T, A57S, S59T, D61E, H66D, F91V, F99Y, F102L
notes: Purified from hybridoma
Consider B15, for which the binding result in the assay with human Claudin18.1 is reported as “no binding (tested: about 50 nM)”. In the assay with human Claudin18.2 [3], the EC50 worked out at 10.9 nM and the “Max MFI” value came to 6.01e+06 MFI.

B16: mouse antibody 16A9.11 (antibody, V domains shown)
VH: B10 VH with N74T, A97T, L105M
VL: B9 VL with A57S, S59T, D61E, H66D, F91V, F99Y, F102L
notes: Purified from hybridoma
In the case of B16, in the assay with human Claudin18.1, the binding result is “no binding (tested: about 50 nM)”. In addition, in the assay with human Claudin18.2 [3], the response was half-maximal at 10.2 nM (EC50) and the “Max MFI” value was 5.82e+06 MFI.

B17: chimeric antibody 16A9.11-hz00 (antibody, human IgG1, kappa, V domains shown)
VH: B10 VH with N74T, A97T, L105M
VL: B10 VL
notes: as for B11
With B17, in the assay with human Claudin18.2 [4], the EC50 came to 10.5 nM and the “Max MFI” value came out at 1.24e+07 MFI.

B18: mouse antibody 19G10.14 (antibody, V domains shown)
VH: QVQLKESGPGLVAPSQSLSITCTVSGFSFTSYGVHWVRQPPGKGLEWLGVIWAGGSTDYNAALMSRLSIRKDNSKSQVFLKMNSLQIADTAMYYCARDGHGKVGFDVWGAGTTVTVSS
VL: DIVMTQSPSSLSVSAGEKVTMNCKSSQSLLNSGNQKNYLAWYQQKPGQPPKLLIYGASTRESGVPDRFTGGGSGTDFTLTISSVQAEDLAIYYCQNDHFYPFTFGSGTKLEIK
notes: Purified from hybridoma
For B18, in the assay with human Claudin18.1, the binding result is reported as “no binding (tested: about 50 nM)”. For the same molecule, in the assay with human Claudin18.2 [3], the EC50 stood at 16.3 nM and the “Max MFI” value was 3.5e+06 MFI.

B19: mouse antibody 9C8.1 (antibody, V domains shown)
VH: B11 VH
VL: B9 VL with M21V, S59T, D61E, H66D, E87A, F91I, A106G, L112I
notes: Purified from hybridoma
As for B19, the binding result with human Claudin18.1 is “no binding (tested: about 50 nM)”. Also, in the assay with human Claudin18.2 [3], the response was half-maximal at 9.4 nM (EC50) and the “Max MFI” value came out at 4.97e+06 MFI.
